Test results from paper PMC9352680, “A comprehensive thermodynamic model for RNA binding by the Saccharomyces cerevisiae Pumilio protein PUF4”.

T1: PUF4 RNA-binding domain (Saccharomyces cerevisiae, UniProt P25339 537-888)
T1 sequence: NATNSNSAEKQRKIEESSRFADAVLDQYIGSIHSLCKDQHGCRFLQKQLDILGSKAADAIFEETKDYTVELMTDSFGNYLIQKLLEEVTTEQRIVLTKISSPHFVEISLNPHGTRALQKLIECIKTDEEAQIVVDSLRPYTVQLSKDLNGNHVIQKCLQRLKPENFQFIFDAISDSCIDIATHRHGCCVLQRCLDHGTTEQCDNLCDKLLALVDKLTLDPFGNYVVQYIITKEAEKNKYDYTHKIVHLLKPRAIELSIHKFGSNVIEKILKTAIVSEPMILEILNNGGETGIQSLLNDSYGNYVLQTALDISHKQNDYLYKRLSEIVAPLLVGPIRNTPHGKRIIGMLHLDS


Target: T1, PUF4 RNA-binding domain
Assay: Mg; RNA-MaP; 20 mM Na-HEPES pH 7.4, 30 mM KOAc, 0.75 mM MgCl2, 0.1% Tween-20, 5% glycerol, 0.1 mg/mL BSA, 2 mM DTT; 25 C; 0.0125-409.6 nM protein
Conditions: tags: N-His6-TEV cleaved; C-SNAP kept, Cy3B-labelled; label: tethered on chip by stalled RNA polymerase

Binder	Kd [nM]
UCUCUUUGUACUUACGUCUCUU (ssRNA) [Ic_S1_P5E.1_K5.1_C5.1_H5.1_A5.1_[T5C]_[A7T]_F5.1_[T8A]_[T9C]_[A10G]_T5.1]	504
UCUCUUUGUACGAAUGUCUCUU (ssRNA) [Ic_S1_P5E.1_K5.1_C5.1_H5.1_A5.1_[T5C]_[T6G]_F5.1_[T8A]_[A10G]_T5.1]	819
UCUCUUUGUAAUAAUGUCUCUU (ssRNA) [Ic_S1_P5E.1_K5.1_C5.1_H5.1_A5.1_[T5A]_F5.1_[T8A]_[A10G]_T5.1]	521
UCUCUUUGUACCCUUUUCUCUU (ssRNA) [Ic_S1_P5E.1_K5.1_C5.1_H5.1_A5.1_[T5C]_[T6C]_[A7C]_F5.1_[A10T]_T5.1]	35.9
UCUCUUUGUAAGUUAGUCUCUU (ssRNA) [Ic_S1_P5E.1_K5.1_C5.1_H5.1_A5.1_[T5A]_[T6G]_[A7T]_F5.1_[T9A]_[A10G]_T5.1]	17.2
UCUCUUUGUAUAUUCCUCUCUU (ssRNA) [Ic_S1_P5E.1_K5.1_C5.1_H5.1_A5.1_[T6A]_[A7T]_F5.1_[T9C]_[A10C]_T5.1]	5.93
UCUCUUUGUAUUCGUUUCUCUU (ssRNA) [Ic_S1_P5E.1_K5.1_C5.1_H5.1_A5.1_[A7C]_F5.1_[T8G]_[A10T]_T5.1]	378
UCUCUUUGUAUUCCAAUCUCUU (ssRNA) [Ic_S1_P5E.1_K5.1_C5.1_H5.1_A5.1_[A7C]_F5.1_[T8C]_[T9A]_T5.1]	526
UCUCUUUGUAGCGUAAUCUCUU (ssRNA) [Ic_S1_P5E.1_K5.1_C5.1_H5.1_A5.1_[T5G]_[T6C]_[A7G]_F5.1_[T9A]_T5.1]	300
UCUCUUUGUAUUGGUUUCUCUU (ssRNA) [Ic_S1_P5E.1_K5.1_C5.1_H5.1_A5.1_[A7G]_F5.1_[T8G]_[A10T]_T5.1]	711
UCUCUUUGCGUAUAUCUCUU (ssRNA) [Ib_S1_P3E.1_K3.1_C3.1_H3.1_[T3C]_[A4G]_A3.1_F3.1_T3.1]	> 2300
UCUCUUUGUACCGUCCUCUCUU (ssRNA) [Ic_S1_P5E.1_K5.1_C5.1_H5.1_A5.1_[T5C]_[T6C]_[A7G]_F5.1_[T9C]_[A10C]_T5.1]	1540
UCUCUUUGUAACCGGUUCUCUU (ssRNA) [Ic_S1_P5E.1_K5.1_C5.1_H5.1_A5.1_[T5A]_[T6C]_[A7C]_F5.1_[T8G]_[T9G]_[A10T]_T5.1]	> 2300
UCUCUUUGUACUCACGUCUCUU (ssRNA) [Ic_S1_P5E.1_K5.1_C5.1_H5.1_A5.1_[T5C]_[A7C]_F5.1_[T8A]_[T9C]_[A10G]_T5.1]	1100
UCUCUUUGUAAUCCGCUCUCUU (ssRNA) [Ic_S1_P5E.1_K5.1_C5.1_H5.1_A5.1_[T5A]_[A7C]_F5.1_[T8C]_[T9G]_[A10C]_T5.1]	1660
UCUCUUUGUAGCUGGUUCUCUU (ssRNA) [Ic_S1_P5E.1_K5.1_C5.1_H5.1_A5.1_[T5G]_[T6C]_[A7T]_F5.1_[T8G]_[T9G]_[A10T]_T5.1]	> 2300
UCUCUUUGUAUGCCAUUCUCUU (ssRNA) [Ic_S1_P5E.1_K5.1_C5.1_H5.1_A5.1_[T6G]_[A7C]_F5.1_[T8C]_[T9A]_[A10T]_T5.1]	100
UCUCUUUGUACAUAGUUCUCUU (ssRNA) [Ic_S1_P5E.1_K5.1_C5.1_H5.1_A5.1_[T5C]_[T6A]_[A7T]_F5.1_[T8A]_[T9G]_[A10T]_T5.1]	4.18
UCUCUUUGUAACACCAUCUCUU (ssRNA) [Ic_S1_P5E.1_K5.1_C5.1_H5.1_A5.1_[T5A]_[T6C]_F5.1_[T8C]_[T9C]_T5.1]	111
UCUCUUUGUAUUUUCUUCUCUU (ssRNA) [Ic_S1_P5E.1_K5.1_C5.1_H5.1_A5.1_[A7T]_F5.1_[T9C]_[A10T]_T5.1]	34.8
UCUCUUUGUAAUUCACUCUCUU (ssRNA) [Ic_S1_P5E.1_K5.1_C5.1_H5.1_A5.1_[T5A]_[A7T]_F5.1_[T8C]_[T9A]_[A10C]_T5.1]	734
UCUCUUUGACUAUAUCUCUU (ssRNA) [Ib_S1_P3E.1_K3.1_C3.1_H3.1_[T3A]_[A4C]_A3.1_F3.1_T3.1]	> 2300

Binder	Kd [nM]
UCUCUUUGUACCUAGCUCUCUU (ssRNA) [Ic_S1_P5E.1_K5.1_C5.1_H5.1_A5.1_[T5C]_[T6C]_[A7T]_F5.1_[T8A]_[T9G]_[A10C]_T5.1]	114
UCUCUUUGUACUUGUUUCUCUU (ssRNA) [Ic_S1_P5E.1_K5.1_C5.1_H5.1_A5.1_[T5C]_[A7T]_F5.1_[T8G]_[A10T]_T5.1]	87.4
UCUCUUUGUAGCUGCUUCUCUU (ssRNA) [Ic_S1_P5E.1_K5.1_C5.1_H5.1_A5.1_[T5G]_[T6C]_[A7T]_F5.1_[T8G]_[T9C]_[A10T]_T5.1]	2150
UCUCUUUGUAGCUGCCUCUCUU (ssRNA) [Ic_S1_P5E.1_K5.1_C5.1_H5.1_A5.1_[T5G]_[T6C]_[A7T]_F5.1_[T8G]_[T9C]_[A10C]_T5.1]	> 2300
UCUCUUUGUAGCCCAAUCUCUU (ssRNA) [Ic_S1_P5E.1_K5.1_C5.1_H5.1_A5.1_[T5G]_[T6C]_[A7C]_F5.1_[T8C]_[T9A]_T5.1]	> 2300
UCUCUUUGUACCUGCUUCUCUU (ssRNA) [Ic_S1_P5E.1_K5.1_C5.1_H5.1_A5.1_[T5C]_[T6C]_[A7T]_F5.1_[T8G]_[T9C]_[A10T]_T5.1]	378
UCUCUUUGUAGCUUACUCUCUU (ssRNA) [Ic_S1_P5E.1_K5.1_C5.1_H5.1_A5.1_[T5G]_[T6C]_[A7T]_F5.1_[T9A]_[A10C]_T5.1]	19.2
UCUCUUUGUAAUCAUCUCUCUU (ssRNA) [Ic_S1_P5E.1_K5.1_C5.1_H5.1_A5.1_[T5A]_[A7C]_F5.1_[T8A]_[A10C]_T5.1]	482
UCUCUUUGUACUCUACUCUCUU (ssRNA) [Ic_S1_P5E.1_K5.1_C5.1_H5.1_A5.1_[T5C]_[A7C]_F5.1_[T9A]_[A10C]_T5.1]	4.81
UCUCUUUGUAGUACCUUCUCUU (ssRNA) [Ic_S1_P5E.1_K5.1_C5.1_H5.1_A5.1_[T5G]_F5.1_[T8C]_[T9C]_[A10T]_T5.1]	> 2300
UCUCUUGGUACAUAUCUCUU (ssRNA) [Ib_S1_P3E.1_K3.1_C3.1_H3.1_[T1G]_A3.1_[T5C]_F3.1_T3.1]	1550
UCUCUUUGUAAAUACUUCUCUU (ssRNA) [Ic_S1_P5E.1_K5.1_C5.1_H5.1_A5.1_[T5A]_[T6A]_[A7T]_F5.1_[T8A]_[T9C]_[A10T]_T5.1]	37.4
UCUCUUUGUAUCCCGCUCUCUU (ssRNA) [Ic_S1_P5E.1_K5.1_C5.1_H5.1_A5.1_[T6C]_[A7C]_F5.1_[T8C]_[T9G]_[A10C]_T5.1]	1690
UCUCUUUGUAUGACCCUCUCUU (ssRNA) [Ic_S1_P5E.1_K5.1_C5.1_H5.1_A5.1_[T6G]_F5.1_[T8C]_[T9C]_[A10C]_T5.1]	2180
UCUCUUUGUACCAGCGUCUCUU (ssRNA) [Ic_S1_P5E.1_K5.1_C5.1_H5.1_A5.1_[T5C]_[T6C]_F5.1_[T8G]_[T9C]_[A10G]_T5.1]	1180
UCUCUUUGUACAAAACUCUCUU (ssRNA) [Ic_S1_P5E.1_K5.1_C5.1_H5.1_A5.1_[T5C]_[T6A]_F5.1_[T8A]_[T9A]_[A10C]_T5.1]	45.2
UCUCUUUGUAUCUUAUUCUCUU (ssRNA) [Ic_S1_P5E.1_K5.1_C5.1_H5.1_A5.1_[T6C]_[A7T]_F5.1_[T9A]_[A10T]_T5.1]	3.28
UCUCUUUGUACCUUAGUCUCUU (ssRNA) [Ic_S1_P5E.1_K5.1_C5.1_H5.1_A5.1_[T5C]_[T6C]_[A7T]_F5.1_[T9A]_[A10G]_T5.1]	2.41
UCUCUUUGUAUCCCUAUCUCUU (ssRNA) [Ic_S1_P5E.1_K5.1_C5.1_H5.1_A5.1_[T6C]_[A7C]_F5.1_[T8C]_T5.1]	13.3
UCUCUUUGUACGUUCAUCUCUU (ssRNA) [Ic_S1_P5E.1_K5.1_C5.1_H5.1_A5.1_[T5C]_[T6G]_[A7T]_F5.1_[T9C]_T5.1]	51.8
UCUCUUUGUAUGUACCUCUCUU (ssRNA) [Ic_S1_P5E.1_K5.1_C5.1_H5.1_A5.1_[T6G]_[A7T]_F5.1_[T8A]_[T9C]_[A10C]_T5.1]	93.8
UCUCUUCGUACAUAUCUCUU (ssRNA) [Ib_S1_P3E.1_K3.1_C3.1_H3.1_[T1C]_A3.1_[T5C]_F3.1_T3.1]	1050

Binder	Kd [nM]
UCUCUUUGUAUCUUCCUCUCUU (ssRNA) [Ic_S1_P5E.1_K5.1_C5.1_H5.1_A5.1_[T6C]_[A7T]_F5.1_[T9C]_[A10C]_T5.1]	74.7
UCUCUUUGUAUCUCGAUCUCUU (ssRNA) [Ic_S1_P5E.1_K5.1_C5.1_H5.1_A5.1_[T6C]_[A7T]_F5.1_[T8C]_[T9G]_T5.1]	463
UCUCUUUGUAACCCGAUCUCUU (ssRNA) [Ic_S1_P5E.1_K5.1_C5.1_H5.1_A5.1_[T5A]_[T6C]_[A7C]_F5.1_[T8C]_[T9G]_T5.1]	1950
UCUCUUUGUAGCACUUUCUCUU (ssRNA) [Ic_S1_P5E.1_K5.1_C5.1_H5.1_A5.1_[T5G]_[T6C]_F5.1_[T8C]_[A10T]_T5.1]	1000
UCUCUUUGUAUAUCAGUCUCUU (ssRNA) [Ic_S1_P5E.1_K5.1_C5.1_H5.1_A5.1_[T6A]_[A7T]_F5.1_[T8C]_[T9A]_[A10G]_T5.1]	4.58
UCUCUUUGUAAAUAUCUCUCUU (ssRNA) [Ic_S1_P5E.1_K5.1_C5.1_H5.1_A5.1_[T5A]_[T6A]_[A7T]_F5.1_[T8A]_[A10C]_T5.1]	27.1
UCUCUUUGUAACAUUCUCUCUU (ssRNA) [Ic_S1_P5E.1_K5.1_C5.1_H5.1_A5.1_[T5A]_[T6C]_F5.1_[A10C]_T5.1]	15
UCUCUUUGUAUCAAUGUCUCUU (ssRNA) [Ic_S1_P5E.1_K5.1_C5.1_H5.1_A5.1_[T6C]_F5.1_[T8A]_[A10G]_T5.1]	354
UCUCUUUGUAACCGUAUCUCUU (ssRNA) [Ic_S1_P5E.1_K5.1_C5.1_H5.1_A5.1_[T5A]_[T6C]_[A7C]_F5.1_[T8G]_T5.1]	52.9
UCUCUUUGUAUCCAGCUCUCUU (ssRNA) [Ic_S1_P5E.1_K5.1_C5.1_H5.1_A5.1_[T6C]_[A7C]_F5.1_[T8A]_[T9G]_[A10C]_T5.1]	1300
UCUCUUAGUACAUAUCUCUU (ssRNA) [Ib_S1_P3E.1_K3.1_C3.1_H3.1_[T1A]_A3.1_[T5C]_F3.1_T3.1]	1760
UCUCUUUGUACUCUUUUCUCUU (ssRNA) [Ic_S1_P5E.1_K5.1_C5.1_H5.1_A5.1_[T5C]_[A7C]_F5.1_[A10T]_T5.1]	23.1
UCUCUUUGUAUGUUUCUCUCUU (ssRNA) [Ic_S1_P5E.1_K5.1_C5.1_H5.1_A5.1_[T6G]_[A7T]_F5.1_[A10C]_T5.1]	47
UCUCUUUGUACUCAUUUCUCUU (ssRNA) [Ic_S1_P5E.1_K5.1_C5.1_H5.1_A5.1_[T5C]_[A7C]_F5.1_[T8A]_[A10T]_T5.1]	119
UCUCUUUGUAGUUUAUUCUCUU (ssRNA) [Ic_S1_P5E.1_K5.1_C5.1_H5.1_A5.1_[T5G]_[A7T]_F5.1_[T9A]_[A10T]_T5.1]	15.2
UCUCUUUGUACGUGCUUCUCUU (ssRNA) [Ic_S1_P5E.1_K5.1_C5.1_H5.1_A5.1_[T5C]_[T6G]_[A7T]_F5.1_[T8G]_[T9C]_[A10T]_T5.1]	297
UCUCUUUGUAUCGUUGUCUCUU (ssRNA) [Ic_S1_P5E.1_K5.1_C5.1_H5.1_A5.1_[T6C]_[A7G]_F5.1_[A10G]_T5.1]	315
UCUCUUUGUAUCGAUGUCUCUU (ssRNA) [Ic_S1_P5E.1_K5.1_C5.1_H5.1_A5.1_[T6C]_[A7G]_F5.1_[T8A]_[A10G]_T5.1]	859
UCUCUUUGUAAUAUGGUCUCUU (ssRNA) [Ic_S1_P5E.1_K5.1_C5.1_H5.1_A5.1_[T5A]_F5.1_[T9G]_[A10G]_T5.1]	10.1
UCUCUUUGUAGCCUCAUCUCUU (ssRNA) [Ic_S1_P5E.1_K5.1_C5.1_H5.1_A5.1_[T5G]_[T6C]_[A7C]_F5.1_[T9C]_T5.1]	721
